Molecular target: α3 subunit of the Na+/K+-ATPase, endogenous on mouse cells (cortical neurons, cortical slices, cardiac myocytes) (mouse) (UniProt Q6PIC6)
Experiment: cell-based or functional assay

EC50 of c-fos induction (Fos in situ enzyme-linked immunoassay, cortical cultures) [nM]	Substance
0.0127	C-Ag95z8, soluble 95-kD COOH terminus of mouse agrin, y4 z8 (from UniProt A2ASQ1 1144-1950) (ligand)
0.0119	C-Ag95z0, soluble 95-kD COOH terminus of mouse agrin, y4 z0 (from UniProt A2ASQ1 1144-1950) (ligand)
